The test deals with Her2 on SKBR3 cells (human (endogenous in SKBR3)) (UniProt P04626). Description: flow cytometry on cells; 200,000 SKBR3 cells per sample incubated on ice for 60 min with serial dilutions of antibody or ADC in FACS buffer (DPBS, 1% BSA); detected with Alexa 647 goat anti-human IgG; mean fluorescence intensities fitted with a one-site specific binding equation. In general terms: Flow cytometry measures light scatter and fluorescence of single cells or particles in a stream.

Turning to “Trastuzumab^CF MMAF (AB4285) LC-S7 (antibody)”, the Kd (commonly the free concentration of one partner at which half of the binding sites on the other are occupied at equilibrium, for simple one-to-one binding) was determined as 7.6 nM.
